Patent publication US20240343803A1 (SHANDONG SIMCERE BIOPHARMACEUTICAL, published 2024)

T1: Fusion protein of extracellular domain of human TIGIT and His-tag (human TIGIT ECD-his) (human)
T1 chain: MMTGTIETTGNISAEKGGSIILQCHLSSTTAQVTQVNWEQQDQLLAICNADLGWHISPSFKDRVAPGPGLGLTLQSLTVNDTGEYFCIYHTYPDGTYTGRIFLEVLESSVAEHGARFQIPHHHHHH

T2: Fusion protein of extracellular domain of human TIGIT and mouse IgG2a Fc fragment (human TIGIT ECD-mFc) (human)
T2 construct: The entry includes the signal peptide (limits not recoverable) and the mouse IgG2a Fc
T2 chain: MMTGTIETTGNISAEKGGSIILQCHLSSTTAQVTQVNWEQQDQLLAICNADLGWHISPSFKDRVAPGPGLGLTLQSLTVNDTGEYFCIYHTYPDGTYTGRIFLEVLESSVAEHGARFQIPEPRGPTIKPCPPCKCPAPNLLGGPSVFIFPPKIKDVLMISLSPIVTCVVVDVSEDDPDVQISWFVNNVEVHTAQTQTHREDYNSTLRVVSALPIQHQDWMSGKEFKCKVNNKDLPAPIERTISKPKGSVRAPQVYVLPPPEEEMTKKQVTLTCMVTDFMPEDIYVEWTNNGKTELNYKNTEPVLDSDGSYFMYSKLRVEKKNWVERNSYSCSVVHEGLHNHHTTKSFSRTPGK

T3: Full-length human TIGIT on CHO-K1 cells (CHO-K1 human TIGIT) (human, UniProt Q495A1 22-244)
T3 construct: NCBI XP_024309156.1; the entry includes the signal peptide (limits not recoverable); The strain (high, medium, low) is named under assay; also called high expression strain 1D2; medium expression strain 2D10
T3 sequence: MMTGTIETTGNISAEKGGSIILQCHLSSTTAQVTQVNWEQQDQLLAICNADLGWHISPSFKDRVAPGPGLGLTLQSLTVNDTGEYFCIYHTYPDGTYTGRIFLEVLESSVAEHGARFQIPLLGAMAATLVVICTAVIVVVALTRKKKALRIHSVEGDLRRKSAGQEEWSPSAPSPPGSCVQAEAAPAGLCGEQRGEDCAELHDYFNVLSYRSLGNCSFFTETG

T4: human PVRIG-his (AcroBiosystems, Cat NO. PVG-H52H4) (human, UniProt Q6DKI7 41-171, limits assumed)
T4 construct: Bought reagent; also called human PVRIG protein
T4 sequence (looked up): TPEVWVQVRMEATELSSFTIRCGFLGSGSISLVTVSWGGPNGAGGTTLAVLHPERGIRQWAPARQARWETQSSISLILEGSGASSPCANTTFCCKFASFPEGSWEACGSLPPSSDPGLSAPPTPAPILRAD

T5: cynomolgus monkey PVRIG (Novoprotein, Cat NO. C09B) (cynomolgus monkey, UniProt A0A2K5WVV8 41-171)
T5 construct: Bought reagent; also called cynomolgus monkey PVRIG protein
T5 sequence: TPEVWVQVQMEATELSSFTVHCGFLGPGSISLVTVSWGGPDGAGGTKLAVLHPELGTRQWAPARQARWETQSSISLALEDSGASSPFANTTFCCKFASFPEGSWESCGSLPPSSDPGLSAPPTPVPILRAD

T6: human PVRIG on FlpinCHO-PVRIG cells (human, UniProt Q6DKI7 41-326)
T6 construct: whole, on cells
T6 sequence (looked up): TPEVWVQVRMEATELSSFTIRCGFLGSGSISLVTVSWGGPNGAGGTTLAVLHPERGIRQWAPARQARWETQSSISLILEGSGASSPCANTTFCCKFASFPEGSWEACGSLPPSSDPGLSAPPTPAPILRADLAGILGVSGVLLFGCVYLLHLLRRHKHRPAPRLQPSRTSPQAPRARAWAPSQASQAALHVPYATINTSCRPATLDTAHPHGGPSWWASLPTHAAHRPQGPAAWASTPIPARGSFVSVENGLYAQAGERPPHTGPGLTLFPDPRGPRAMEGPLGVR

T7: cynomolgus monkey PVRIG on FlpinCHO-cyno PVRIG cells (cynomolgus monkey, UniProt A0A2K5WVV8 41-322)
T7 construct: whole, on cells
T7 sequence: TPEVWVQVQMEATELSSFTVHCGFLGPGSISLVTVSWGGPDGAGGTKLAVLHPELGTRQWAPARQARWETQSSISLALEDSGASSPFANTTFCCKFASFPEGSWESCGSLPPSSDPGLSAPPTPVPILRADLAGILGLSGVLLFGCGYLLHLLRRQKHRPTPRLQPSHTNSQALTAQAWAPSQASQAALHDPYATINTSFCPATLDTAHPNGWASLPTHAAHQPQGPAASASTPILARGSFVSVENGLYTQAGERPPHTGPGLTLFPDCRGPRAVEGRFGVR

B1: TIGIT-070-H2L1 (antibody, V domains shown)
VH: EVQLVQSGAEVKKPGASVKVSCKASGYTFTNYYMHWVRQAPGQRLEWMGRIDPDSGGSKYNEKFKSRVTITVDKLSSTAYMELSSLRSEDTAVYYCAREGHYGFYSDYWGQGTTVTVSS
VL: DIQMTQSPSSLSASVGDRVTITCRVSENIYSYLAWYQQKPGKSPKLLIYNAKTLAEGVPSRFSGSGSGTDFTLTISSLQPEDFATYYCQHHYGNPLTFGPGTKVDIK
notes: Humanized anti-TIGIT antibody
B2: TIGIT-070-H1L2 (antibody, V domains shown)
VH: EVQLVQSGAEVKKPGASVKVSCKASGYTFTNYYMHWVRQAPGQRLEWMGRIDPDSGGSKYNEKFKSRVTITVDKSASTAYMELSSLRSEDTAVYYCAREGHYGFYSDYWGQGTTVTVSS
VL: DIQMTQSPSSLSASVGDRVTITCRVSENIYSYLAWYQQKPGKSPKLLVYNAKTLAEGVPSRFSGSGSGTDFTLTISSLQPEDFATYYCQHHYGNPLTFGPGTKVDIK
notes: Humanized anti-TIGIT antibody
B3: PVRIG-A43 (Fc fusion)
chain: QVQLVESGGGLVQSGGSLRLSCAASGRTRSMYVMGWFRQAPGKEREFVGRIKWSGDTTYTSYADFVKGRFTLYGNQARNTVYLQMNSLKVEDTAVYYCAGRVVPLPSRQRDRYDYWGQGTQVTVSS
notes: Alpaca VHH joined to human IgG1 Fc (VHH-hinge-CH2-CH3); not shown: human IgG1 hinge-CH2-CH3
B4: PVRIG-A104 (Fc fusion)
chain: EVQVVESGGGLVQAGGSLRLSCAASGRTRSMYVMGWFRQAPGKEREFVGRIKWSGDTTYTSYADFVKGRFTLYGNQARNTVYLQMNSLKPEDTAVYYCYRRSWTNTKLYWGKGIQVTVSS
notes: as for B3

Key:
[1] = target: T1, Fusion protein of extracellular domain …; experiment: BIAcore
[2] = target: T2, Fusion protein of extracellular domain …; experiment: ELISA, human TIGIT ECD-mFc
How it was run: (§1)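 Plates blocked with 5% skim milk-PBS at 37° C for 2-4 h. Test antibodies applied as a 12-point 3-fold series from 13 nM for 1.5-2 h at 37° C. Read-out: HRP secondary (1:5000, 1 h, 37° C), TMB colour for 7-10 min at room temperature, acid stop, absorbance at OD450 nm.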

[3] = target: T1, Fusion protein of extracellular domain …; experiment: BIAcore; KD ratio to TIGIT-CHI-070
[4] = target: T8, Fusion protein of extracellular domain of cynomolgus monkey TIGIT and mouse IgG2a Fc fragment (cynomolgus … (cynomolgus monkey)); experiment: ELISA, cynomolgus monkey TIGIT ECD-mFc
T8 construct: The entry includes the signal peptide (limits not recoverable) and the mouse IgG2a Fc
T8 sequence (chain, as listed by the source limits assumed): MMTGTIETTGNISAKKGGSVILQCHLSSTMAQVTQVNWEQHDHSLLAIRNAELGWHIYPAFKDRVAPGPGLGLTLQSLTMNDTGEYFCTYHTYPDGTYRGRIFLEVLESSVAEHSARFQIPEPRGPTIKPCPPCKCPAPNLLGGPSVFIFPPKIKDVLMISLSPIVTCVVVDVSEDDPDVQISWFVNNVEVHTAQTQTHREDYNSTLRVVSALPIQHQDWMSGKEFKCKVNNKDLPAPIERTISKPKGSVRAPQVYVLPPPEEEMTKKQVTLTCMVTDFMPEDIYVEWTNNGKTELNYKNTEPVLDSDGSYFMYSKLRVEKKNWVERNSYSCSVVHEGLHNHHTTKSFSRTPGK
How it was run: as §1

[5] = target: T9, Full-length cynomolgus monkey TIGIT on CHO-K1 cells (CHO-K1 cynomolgus monkey TIGIT) (cynomolgus monkey); experiment: cell binding, CHO-K1 cynomolgus monkey TIGIT
T9 construct: NCBI XP_015300911.1
T9 sequence (chain, as listed by the source limits assumed): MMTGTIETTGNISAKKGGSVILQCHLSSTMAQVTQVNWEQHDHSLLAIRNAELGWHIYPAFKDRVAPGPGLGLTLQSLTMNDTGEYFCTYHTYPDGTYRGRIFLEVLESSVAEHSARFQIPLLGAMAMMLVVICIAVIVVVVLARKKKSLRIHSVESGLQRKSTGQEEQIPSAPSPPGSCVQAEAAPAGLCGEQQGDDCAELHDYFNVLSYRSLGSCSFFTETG
How it was run: (§2)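 Binding was measured by flow cytometry after a 60-minute, 4° C incubation of the antibodies with 2×10⁵ CHO-K1 cells displaying full-length human or cynomolgus monkey TIGIT. Antibody titration: 12 points, threefold serial dilution from 80 nM, in 1% BSA-PBS.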

[6] = target: T10, Fusion protein of extracellular domain of human TIGIT and human IgG1 Fc fragment (human TIGIT ECD-hFc) (human); experiment: blocking of TIGIT ECD-hFc binding to CHO-K1 CD155 cells
T10 construct: The entry includes the signal peptide (limits not recoverable) and the human IgG1 Fc
T10 sequence (chain, as listed by the source limits assumed): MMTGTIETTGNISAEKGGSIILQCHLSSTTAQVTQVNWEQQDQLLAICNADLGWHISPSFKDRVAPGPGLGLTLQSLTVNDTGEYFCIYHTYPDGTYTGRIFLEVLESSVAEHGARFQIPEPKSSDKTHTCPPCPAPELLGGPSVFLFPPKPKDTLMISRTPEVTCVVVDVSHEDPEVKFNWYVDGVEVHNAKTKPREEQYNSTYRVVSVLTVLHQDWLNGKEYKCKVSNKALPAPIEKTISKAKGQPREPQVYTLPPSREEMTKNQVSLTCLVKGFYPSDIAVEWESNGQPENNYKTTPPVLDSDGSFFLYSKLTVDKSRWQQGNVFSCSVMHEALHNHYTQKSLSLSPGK
How it was run: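 IC50 values come from inhibition curves in a cell-based ELISA using CHO-K1 CD155 cells. Antibodies premixed for 0.5 h with human TIGIT ECD-hFc (working concentration 30 ng/mL) were added to the fixed, blocked cells for 1.5-2 h at 37° C. Bound TIGIT was then detected with HRP secondary antibody and TMB at OD450 nm.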

[7] = target: T3, Full-length human TIGIT on CHO-K1 cells …; experiment: cell binding, CHO-K1 human TIGIT high expression strain
How it was run: as §2

[8] = target: T4, human PVRIG-his (AcroBiosystems, Cat …); experiment: ELISA, coated human PVRIG-his
Method: (§3) The ELISA plate was pre-coated with 100 μL/well of 0.5 μg/mL human PVRIG-his (AcroBiosystems, Cat NO. PVG-H52H4) or cynomolgus monkey PVRIG (Novoprotein, Cat NO. C09B). […] A HRP substrate, TMB (Thermo, Cat NO. 34029) was added into wells after washing the plate again for color development. After adding a termination solution to terminate the reaction, the absorbance value was read by a microplate reader (MD i3×). An antibody binding curve was drawn with concentration of antibodies as the abscissa and the corresponding OD value as the ordinate. The EC50 value was calculated by using a Four Parameter Logistic Fit (GraphPadPrism9). The smaller the EC50 value, the stronger the ability of the antibodies binds to human or cynomolgus monkey PVRIG. The positive control antibodies are COM701-hIgG1 (Patent No.:US20180244774A1), COM701-hIgG4 (patent No.: US20180244774A1) and SRF813-hIgG1 (Patent No.:US20200040081A1); and the negative control antibodies are anti-HA HcAb-hIgG1 (Chengdu NB Biolab, Cat NO. NBR022), anti-CD38 HcAb-hIgG1 (in-house) and anti-Fluorescein-hIgG1 (in house).

[9] = target: T5, cynomolgus monkey PVRIG (Novoprotein, …); experiment: ELISA, coated cynomolgus monkey PVRIG
Method: as §3

[10] = target: T6, human PVRIG on FlpinCHO-PVRIG cells; experiment: FACS, FlpinCHO-PVRIG cells; AUC of MFI curve relative to COM701-hIgG1
Method: (§4) The Ham's F12 (Gibico, 21127-022) complete medium containing 10% FBS was then added to terminate the digestion and acquire cell suspension. After counting with a cell counter (Beckman Coulter, Vi-CELL), an appropriate amount of cell suspension was centrifuged at 350×g to remove the supernatant, washed twice with PBS, stained with Zombie violet (Biolegend, 423114) and incubated at room temperature for 20 minutes. After incubation, the cells were added with staining buffer (2% FBS+PBS) to stop staining, centrifuged at 350×g to remove the supernatant, washed twice and resuspended with staining buffer to a density of 2×10⁶ cells/mL. The cells were plated into a 96-well plate (50 μL of cell suspension per well) for further use. The antibodies were diluted from the highest concentration of 46 nM (two-fold concentration) with staining buffer by 3.3-fold serial dilution. The diluted antibodies were added to the well containing 50 μL of cell suspension. The plate was placed on a microplate shaker at 400 rpm for 1 minute to fully mix the antibodies and cells, and then incubated at 4° C. for 30 minutes. After the incubation, the cells were washed twice with staining buffer (200 μL per well) and centrifuged at 350×g for 5 minutes to discard the supernatant. The PE goat anti-human IgG Fc antibody (ebioscience, 12-4998-82) was diluted 250 times with staining buffer, added into the washed wells (100 μL per well), mixed well, and stained at 4° C. for 30 minutes. After staining, the cells were washed twice with staining buffer, finally resuspended with 200 μL staining buffer and analyzed by flow cytometry (BD, Canto II). The stronger the signal, the stronger the ability of the antibodies binds to PVRIG. An antibody binding curve was drawn with concentration of antibodies as the abscissa and the corresponding Mean Fluorescence Intensity (MFI) as the ordinate. The AUC value of the curve was calculated by using a Four Parameter Logistic Fit (GraphPadPrism9). The stronger the AUC value, the stronger the ability of the antibodies binds to FlpinCHO-PVRIG and FlpinCHO-cyno PVRIG. […] The binding activity of the antibodies was normalized to the positive control COM701-hIgG1 and SRF813-hIgG1.

[11] = target: T6, human PVRIG on FlpinCHO-PVRIG cells; experiment: FACS, FlpinCHO-PVRIG cells; AUC of MFI curve relative to SRF813-hIgG1
Method: as §4

[12] = target: T7, cynomolgus monkey PVRIG on …; experiment: FACS, FlpinCHO-cyno PVRIG cells; AUC of MFI curve relative to COM701-hIgG1
Method: as §4

[13] = target: T7, cynomolgus monkey PVRIG on …; experiment: FACS, FlpinCHO-cyno PVRIG cells; AUC of MFI curve relative to SRF813-hIgG1
Method: as §4

Row | Binder | Kd [1] | koff [1] | kon [1] | EC50 [2] | Fold change vs chimeric antibodies (KD) [3] | EC50 [4] | EC50 [5] | IC50 [6] | EC50 [7] | EC50 [8] | EC50 [9] | % AUC to COM701-hIgG1 [10] | % AUC to SRF813-hIgG1 [11] | % AUC to COM701-hIgG1 [12] | % AUC to SRF813-hIgG1 [13]
1 | B1 | 0.0808 nM | 0.000134 s⁻¹ | 1.66e+06 M⁻¹ s⁻¹ | 0.0129 nM | 0.82 fold | 0.0124 nM | 0.0799 nM | 0.393 nM | 0.0236 nM | – | – | – | – | – | –
2 | B2 | 0.0883 nM | 0.000148 s⁻¹ | 1.67e+06 M⁻¹ s⁻¹ | 0.0118 nM | 0.9 fold | 0.0116 nM | 0.0879 nM | 0.421 nM | 0.0272 nM | – | – | – | – | – | –
3 | B3 | – | – | – | – | – | – | – | – | – | 0.0537 nM | 0.036 nM | 165% | 181% | 19.6% | 25.7%
4 | B4 | – | – | – | – | – | – | – | – | – | 0.0659 nM | 0.0353 nM | 18.1% | 23.9% | 18.4% | 23.9%
